B1: HDV Ribozyme (parent)
chain: GGCCGGCAUGGUCCCAGCCUCCUCGCUGGCGCCGGCUGGGCAACAUUCCGAGGGGACCGUCCCCUCGGUAAUGGCGAAUGGGACCCA

Variants of: B1
Assay: self-cleavage, relative activity (ratio to wild type); higher = more cleavage; co-transcriptional

Row | Variant | self-cleavage
1 | GGCCGGCAUGGUCCCAGCCUCCUCGCUGGCGCCGGCUGGGCAACAUUCCGAGGGGACCGUUCGCUCGGUAAUGGCGAAUGGGACCCA | 0.243
2 | GGCCGGCAUGGUCCCAGCCUCCUCGCUGGCGCCGGCUGGGCAACAUUCCGAGGGGACCGUCCGCUCGGUAAUGGCGAAUGGGAACCA | 1.06
3 | GGCCGGCAGGGUCCCAGCCUCCUCGCUGGCGCCGGCUGGGCAACAUUCCGAGGGGACCGUCCCCUCUGUAAUGGCGAAUGGGACCCA | 1.25
4 | GGCCGGCAUGGUCCCAGCCUCCUCGCUGGCGCCGGCUGGGCAACAUUCCGAGGGGACCGGCCCCUCGGUCAUGGCGAAUGGGACCCA | 0.95
5 | GGCCGGCAUGGUCCCAGCCUCAUCGCUGGCGCCGGCUGGGCAACAUUCCGUGGGGACCGUCCCCUCGGUAAUGGCGAAUGGGACCCA | 0.332
6 | GUCCGGCAUGGUCCCAGCCUCCUCGCUGGCGCCGGCUGGGCUACAUUCCGAGGGGACCGUCCCCUCGGUAAUGGCGAAUGGGACCCA | 0.0647
7 | GGCCGGCAUGUUCCCACCCUCCUCGCUGGCGCCGGCUGGGCAACAUUCCGAGGGGACCGUCCCCUCGGUAAUGGCGAAUGGGACCCA | 0.203
8 | GGCCGGCAUGGUCCCAGCCUCCUCGCUGGCGCCGGCUGGGCAACAUUCCGAGGGGACCGUCCCCUAGAUAAUGGCGAAUGGGACCCA | 0.805
9 | GGCGGGCAUGGUCUCAGCCUCCUCGCUGGCGCCGGCUGGGCAACAUUCCGAGGGGACCGUCCCCUCGGUAAUGGCGAAUGGGACCCA | 0.462
10 | GGCCGGCAUGGUCCCAGCCUCCUCGCUGGCGCCGGCUGGGCAACAUUCCGAGGGGACCGACCACUCGGUAAUGGCGAAUGGGACCCA | 0.849
11 | GGCCGGCAUAGUCCCAGCCUCCUCGCUGGCGCCGGCUGGGCAACAUUCCGAGGGAACCGUCCCCUCGGUAAUGGCGAAUGGGACCCA | 0.831
12 | GGCCGGCAUGGUCCUAGCCUCCUCGCUGGCGCAGGCUGGGCAACAUUCCGAGGGGACCGUCCCCUCGGUAAUGGCGAAUGGGACCCA | 0.178
13 | GGCCAGCAUGGUCCCAGCCUCCUCGCUGGCGCCGGCUGGGCAACAUUCCGAGGGGACCGUCCCCUCGGUAAUGGCGGAUGGGACCCA | 0
14 | GGCCGGCAUGGUCCCAGCCUCCUCGCUGGCGCCUGCUGGGCAACAUUCCGAGGGGACCGUCCUCUCGGUAAUGGCGAAUGGGACCCA | 0.166
15 | GGCCGGCAUGGUCCCAGCCUCCUCGCUGGUGCCGGCAGGGCAACAUUCCGAGGGGACCGUCCCCUCGGUAAUGGCGAAUGGGACCCA | 0.256
16 | GGCCGGCAUGGUCCCAGCCUCCUCGCUGGCGCCGGCUGGGCAACAUUCCGAGGGGACCGACCCCUCGGUAAUGGCGACUGGGACCCA | 0

Row | Variant | self-cleavage
17 | GGCCGGCAUGGUCCCAGCCGCCUGGCUGGCGCCGGCUGGGCAACAUUCCGAGGGGACCGUCCCCUCGGUAAUGGCGAAUGGGACCCA | 0.151
18 | GGCCGGCAUGGUCCCAGCCUCCACGGUGGCGCCGGCUGGGCAACAUUCCGAGGGGACCGUCCCCUCGGUAAUGGCGAAUGGGACCCA | 0.978
19 | GGCCGGCAUGGUCCCAGCCUCCUCGCUGGCGGCGGCUGGGCAACAUUCCGAGGGGACCGUCCCCUCGGUGAUGGCGAAUGGGACCCA | 0.0554
20 | GGCCGGCAUGGUCCCAGGCUCCUCGCUGGCGCCGGCUGGGCAACAUUCCGAGGGGACCGUCCCCUCGGUAAUGGCGAAUGGGAACCA | 0.095
21 | GGCCGGCAUGGUCCCAGCCUCGUCGCUGGCGCCGGCUGGGCAACAUUCCUAGGGGACCGUCCCCUCGGUAAUGGCGAAUGGGACCCA | 0.0297
22 | GGCCUGCAUGGUCCCAGCCUCCUCGCCGGCGCCGGCUGGGCAACAUUCCGAGGGGACCGUCCCCUCGGUAAUGGCGAAUGGGACCCA | 0.0978
23 | GGCCGGCAUGGUCCCAGCCUCCUCGCUGGCGCCGGCUGGGCAACAUUCCAAGGGGACCGUCCCCUCGUUAAUGGCGAAUGGGACCCA | 0.767
24 | GGCCGGCAUGGUCCCAGCCUCCUCGCUGGCGCCGGCUCAGCAACAUUCCGAGGGGACCGUCCCCUCGGUAAUGGCGAAUGGGACCCA | 0.113
25 | GGCCGGCAUGGUCCCAGCCUCCUCGCCGGCGCCGGCUGGGCAAGAUUCCGAGGGGACCGUCCCCUCGGUAAUGGCGAAUGGGACCCA | 0.277
26 | GGCCGGCAUGGUCCCAGCCUCCUGGCUGGCACCGGCUGGGCAACAUUCCGAGGGGACCGUCCCCUCGGUAAUGGCGAAUGGGACCCA | 0.0594
27 | GGCCGGCAUGGUCCCAGCCUCCUCGCUGGCGCCGGCUGGCCAACAUUCCGAGGGGACCGUCCCCUCGGUAAUGGCGAAGGGGACCCA | 0.138
28 | GGCCGGCAUGGUCCCAUCCUCCUCGCUGGCGCCGGCUGGGCAACAUUCCGAGGGGACCGUCCCCUCGGUAAUGCCGAAUGGGACCCA | 0.0415
29 | GGCCGGCAUGGUCCCAGCCUCCUCGCUGGCGCCUGCUGGGCAACAUUCCGAUGGGACCGUCCCCUCGGUAAUGGCGAAUGGGACCCA | 0.0588
30 | GGCCGGCAUGGUCCCAGCCUCCUCGCUGCCGCCGGCUGGUCAACAUUCCGAGGGGACCGUCCCCUCGGUAAUGGCGAAUGGGACCCA | 0.0615
31 | GGCCGGCAUGGUCCCAGCCUCCUCGCUGGUGCCGGCUGGGCAACAUUCCGAGGGGACCGUCCCCUCGGUAAUGACGAAUGGGACCCA | 0.0329
32 | GGCCGGCAAGGUCCCAGCCCCCUCGCUGGCGCCGGCUGGGCAACAUUCCGAGGGGACCGUCCCCUCGGUAAUGGCGAAUGGGACCCA | 0.128
